Data on 1 molecule can be found in article PMC8112865, “In vitro reconstitution reveals major differences between human and bacterial cytochrome c synthases” (eLife, 2021).

This test has as its target T1, GST-HCCS (human holocytochrome c synthase, GST-tagged) (human, UniProt P53701 1-268).
T1 construct: human HCCS (holocytochrome c synthase), recombinant, from pGEX GST:HCCS; Carries non-covalent heme liganded to His154 (about 10% occupied as purified, about 30% after heme loading); also called holocyt c synthase; mitochondrial cyt c synthase
T1 sequence (looked up): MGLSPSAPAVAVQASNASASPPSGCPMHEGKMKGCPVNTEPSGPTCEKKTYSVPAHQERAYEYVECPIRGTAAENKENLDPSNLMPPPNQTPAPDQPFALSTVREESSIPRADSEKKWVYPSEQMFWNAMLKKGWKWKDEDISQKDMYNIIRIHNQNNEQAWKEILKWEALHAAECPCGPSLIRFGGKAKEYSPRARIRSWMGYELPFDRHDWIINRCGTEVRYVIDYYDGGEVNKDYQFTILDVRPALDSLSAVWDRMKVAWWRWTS
The experiment in a line: UV-vis absorption spectroscopy; anaerobic in vitro reaction of purified HCCS with peptide, 5 mM DTT, 37°C, 1 hr; reduced alpha peak at 552-555 nm read as heme-attached peptide still bound to HCCS (550 nm for a free heme-attached peptide). The conditions noted are these: both partners purified.

Positions of bridges follow the written chain, without caps; N, C: chain ends. No end group written: not given here.

B1: heme-attached 16mer (product of the HCCS reaction) (peptide)
peptide: KGKKIFIMKCSQCHTV
modifications: linker 10-13 via heme; also: biotin label, position not given here
notes: stretch of cytochrome c with alpha helix 1 and CXXCH; The product of m6 in the HCCS reaction; source: synthetic peptide (RS-synthesis), heme attached in vitro by GST-HCCS
B1: the binding result is listed as “binds”.
